# Data taken from paper PMC4208761, “Molecular Insights into the Interaction between Plasmodium falciparum Apical Membrane Antigen 1 and an Invasion-Inhibitory Peptide” (PLoS ONE, 2014).
# Entries after “also recorded” stand apart in the source; their conditions may differ. No end group written: not given here.
# Target: T1, Fractionally deuterated 3D7 PfAMA1 (residue 104-442), His6 tag cleaved, for NMR (Plasmodium falciparum 3D7, UniProt Q7KQK5 104-442, randomly fractionally deuterated (f-2H))
# T1 sequence (looked up): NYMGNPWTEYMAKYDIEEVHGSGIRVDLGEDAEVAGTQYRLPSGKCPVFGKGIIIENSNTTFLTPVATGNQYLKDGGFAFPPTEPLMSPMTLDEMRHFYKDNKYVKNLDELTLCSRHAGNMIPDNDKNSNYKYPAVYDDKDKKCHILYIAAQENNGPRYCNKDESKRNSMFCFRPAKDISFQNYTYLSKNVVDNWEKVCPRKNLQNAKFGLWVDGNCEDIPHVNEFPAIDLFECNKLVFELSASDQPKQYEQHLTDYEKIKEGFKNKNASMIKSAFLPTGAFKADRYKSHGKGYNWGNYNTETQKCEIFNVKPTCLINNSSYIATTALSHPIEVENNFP
# Experiment: NMR titration
# Details: both partners purified
row,Molecule,stoichiometry N
1,"VFAEFLPLFSKFGSRMHILK (not fully specified, source: E. coli BL21 (DE3), thioredoxin fusion from pET32a, purified (HisTrap, enterokinase cleavage, HiTrap QFF, RP-HPLC)) [Recombinant f-2H, u-13C, 15N-labelled R1 peptide]",1

# Target: T2, Domain I+II of 3D7 PfAMA1 (residue 104-442), immobilised for SPR (Plasmodium falciparum 3D7, UniProt Q7KQK5 104-442)
# T2 sequence (looked up): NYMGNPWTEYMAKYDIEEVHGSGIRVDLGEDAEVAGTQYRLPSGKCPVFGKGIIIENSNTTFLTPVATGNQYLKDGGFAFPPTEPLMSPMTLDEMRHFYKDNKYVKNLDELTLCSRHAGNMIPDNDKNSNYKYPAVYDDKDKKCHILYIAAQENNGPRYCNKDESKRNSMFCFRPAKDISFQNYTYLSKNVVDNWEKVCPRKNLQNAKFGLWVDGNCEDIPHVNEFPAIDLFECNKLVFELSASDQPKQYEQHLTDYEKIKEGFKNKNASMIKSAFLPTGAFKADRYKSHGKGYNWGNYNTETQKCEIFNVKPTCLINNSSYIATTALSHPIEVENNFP
# Experiment: SPR
# Details: both partners purified
row,Molecule,Kd
1,Ac-FLPLFSKFGSRM-NH2 (source: synthetic peptide (Mimotopes)) [R1_(5-16)],1.8 µM
2,Ac-FLPLFSKFGARM-NH2 (source: synthetic peptide (Mimotopes)) [R1_(5-16) S14A],3.3 µM
3,Ac-FLPLFSKAGSRM-NH2 (source: synthetic peptide (Mimotopes)) [R1_(5-16) F12A],87 µM
4,Ac-FAPLFSKFGSRM-NH2 (source: synthetic peptide (Mimotopes)) [R1_(5-16) L6A],60 µM
5,Ac-FLPLFSAFGSRM-NH2 (also called Lys11Ala mutant; source: synthetic peptide (Mimotopes)) [R1_(5-16) K11A],27 µM
6,Ac-FLPLFSKFGSAM-NH2 (source: synthetic peptide (Mimotopes)) [R1_(5-16) R15A],> 100 µM
7,Ac-FLPLFSKFASRM-NH2 (source: synthetic peptide (Mimotopes)) [R1_(5-16) G13A],39 µM
8,Ac-FLPLFSKFGSRA-NH2 (source: synthetic peptide (Mimotopes)) [R1_(5-16) M16A],2.7 µM
9,Ac-FLALFSKFGSRM-NH2 (source: synthetic peptide (Mimotopes)) [R1_(5-16) P7A],61 µM
10,Ac-FLPLFAKFGSRM-NH2 (source: synthetic peptide (Mimotopes)) [R1_(5-16) S10A],4.8 µM

# Target: T3, 3D7 PfAMA1_104–442 (Plasmodium falciparum, UniProt Q7KQK5)
# T3 construct: His6 (TEV-cleavable); made in house
# Experiment: SPR analysis of peptides binding to immobilized AMA1 (Biacore T200)
# Details: SPR alanine scan, 1% DMSO in HBS-EP, 25°C
# Description: A Biacore T200 biosensor instrument was used to measure the affinity of the interaction of peptides with 3D7 PfAMA1_104–442. AMA1 was immobilized onto a CM5 chip as described. Surface plasmon resonance (SPR) experiments were performed at 25°C using HBS-EP (10 mM HEPES, 150 mM NaCl, 3.4 mM EDTA, and 0.05% surfactant P20, pH 7.4) as the running buffer either with (alanine scanning mutagenesis study) or without (truncation study) 1% DMSO. All peptide samples were prepared in the appropriate running buffer. To generate the peptide binding data, peptide at concentrations ranging from 10 nM to 10 µM was injected over immobilized AMA1 at a constant flow rate of 60 µL/min for 1.5 min; peptide dissociation was monitored by flowing running buffer at 60 µL/min for 5 min. The surface was regenerated after each cycle by injecting glycine/HCl at pH 2.0. Sensorgrams were first zeroed on the y-axis and then x-aligned at the start of the injection. Bulk refractive index changes were eliminated by subtracting the reference flow cell responses. For kinetic analysis, ka and kd were determined from the processed data sets by globally fitting to a 1∶1 binding model. For rapidly associating/dissociating truncated peptides, K D was determined by fitting to a steady-state affinity model using a fixed Rmax that was calculated based on the response of R1_5–16.
row,Molecule,fold reduction in affinity for AMA1 relative to R1_5–16
1,Ac-FAPLFSKFGSRM-NH2 [R1_5–16 L6A],33 fold
2,Ac-FLALFSKFGSRM-NH2 [R1_5–16 P7A],35 fold
3,Ac-FLPLFAKFGSRM-NH2 [R1_5–16 S10A],less than 3 fold
4,Ac-FLPLFSAFGSRM-NH2 [R1_5–16 K11A],15 fold
5,Ac-FLPLFSKAGSRM-NH2 [R1_5–16 F12A],48 fold
6,Ac-FLPLFSKFASRM-NH2 [R1_5–16 G13A],21 fold
7,Ac-FLPLFSKFGARM-NH2 [R1_5–16 S14A],less than 3 fold
8,Ac-FLPLFSKFGSRA-NH2 [R1_5–16 M16A],less than 3 fold

# Same assay, conditions: SPR truncation study, no DMSO, 25°C
row,Molecule,reduction of binding affinity relative to native R1
1,Ac-EFLPLFSKFGSRMH-NH2 [R1_4–17],~10 fold
2,Ac-FLPLFSKFGSRM-NH2 [R1_5–16],~10 fold

# Same assay, conditions: SPR truncation study, no DMSO, 25°C; relative to R1_5–16
row,Molecule,further reduction in K D (affinity) on truncation of R1_5–16 to the 11-residue peptide
1,Ac-FLPLFSKFGSR-NH2 [R1_5–15],~5 fold

# Same assay, conditions: SPR, AMA1 immobilized on CM5 chip, HBS-EP running buffer pH 7.4, no DMSO, 25°C; kinetic 1:1 fit (native R1) or steady-state affinity fit; peptide 10 nM to 10 µM; No binding = no binding event up to 10 µM peptide
row,Molecule,"Equilibrium dissociation constant K D, truncated R1"
1,"R1_1–11: truncated R1 analogue, N-terminally acetylated and C-terminally amidated (Ac-VFAEFLPLFSK-NH2)",no detectable binding; also recorded: No binding ^b
2,"R1_5–14: 10-residue truncated R1 peptide, Arg15 deleted (Ac-FLPLFSKFGS-NH2)",abolished measurable binding; also recorded: No binding ^b
3,"R1_11–20: truncated R1 analogue, N-terminally acetylated and C-terminally amidated (Ac-KFGSRMHILK-NH2)",No binding ^b

# Target: T2, Domain I+II of 3D7 PfAMA1 (residue …)
# Experiment: SPR
# Details: both partners purified
# Remark: another data set of the same source
row,Molecule,Kd
1,Ac-FLPLFSKFGSRM-NH2 (source: synthetic peptide (Mimotopes)) [R1_(5-16)],0.99 µM
2,Ac-EFLPLFSKFGSRMH-NH2 (source: synthetic peptide (Mimotopes)) [R1_(4-17)],0.88 µM
3,Ac-FLPLFSKFGSR-NH2 (source: synthetic peptide (Mimotopes)) [R1_(5-15)],4.6 µM
4,VFAEFLPLFSKFGSRMHILK [Native R1 peptide],0.11 µM

# Target: T2, Domain I+II of 3D7 PfAMA1 (residue …)
# Experiment: SPR
# Details: both partners purified
# Remark: another data set of the same source
row,Molecule,stoichiometry N
1,VFAEFLPLFSKFGSRMHILK [Native R1 peptide],1
